The record followed here is publication PMC7168936.

Substrate in the data set: N[C@@H](COP(=O)(O)O)C(=O)O
As to the kind of experiment: purified protein, by the assay type. The settings on record: other: substrates of PSAT1, optimized conditions; pH 8.5.

B1: PSAT1 (Homo sapiens) (protein)
chain: MDAPRQVVNFGPGPAKLPHSVLLEIQKELLDYKGVGISVLEMSHRSSDFAKIINNTENLVRELLAVPDNYKVIFLQGGGCGQFSAVPLNLIGLKAGRCADYVVTGAWSAKAAEEAKKFGTINIVHPKLGSYTKIPDPSTWNLNPDASYVYYCANETVHGVEFDFIPDVKGAVLVCDMSSNFLSKPVDVSKFGVIFAGAQKNVGSAGVTVVIVRDDLLGFALRECPSVLEYKVQAGNSSLYNTPPCFSIYVMGLVLEWIKNNGGAAAMEKLSSIKSQTIYEIIDNSQGFYVCPVEPQNRSKMNIPFRIGNAKGDDALEKRFLDKALELNMLSLKGHRSVGGIRASLYNAVTIEDVQKLAAFMKKFLEMHQL
On to B1, for which the Km was found to be 25.1 ± 5.3 μM μM.
